Data on six substances can be found in the supplement of paper PMC5998384.

Data set [1] deals with HeLa Kyoto. As to the kind of experiment: solubility in G1/S (NP-40 vs SDS abundance) (log2 ratio); higher = more soluble. Particulars: cell cycle stage: G1/S.
Data set [2] relates to HeLa Kyoto. Kind of data set: melting temperature (median over replicates), in situ; higher = more thermally stable.
Data set [3] concerns HeLa Kyoto. Kind of data set: solubility change mitosis vs G1/S (difference of NP-40 vs SDS log2 ratios) (log2 ratio difference); higher = more soluble in mitosis.
Data set [4] concerns HeLa Kyoto. Kind of data set: thermal stability score vs G1/S (z-score of summed log2 fold changes over temperatures); higher = more thermally stable than in G1/S.
[5] abbreviates: cell cycle stage: early G1 (4.5 h after nocodazole release).
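For melting temperature (median over replicates), in situ in this document: HeLa Kyoto cells synchronized by double thymidine or nocodazole block, proteins quantified by TMT10plex mass spectrometry, three independent biological replicates.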
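For solubility change mitosis vs G1/S (difference of NP-40 vs SDS log2 ratios) in this document: synchronized HeLa Kyoto cells (double thymidine block for G1/S, nocodazole release for mitosis), protein amounts in NP-40 versus SDS lysates quantified by mass spectrometry, three biological replicates.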
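For solubility in G1/S (NP-40 vs SDS abundance) in this document: HeLa Kyoto cells arrested at G1/S by double thymidine block, proteins quantified by TMT10plex mass spectrometry in mild NP-40 versus SDS extracts, three biological replicates.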
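For thermal stability score vs G1/S (z-score of summed log2 fold changes over temperatures) in this document: synchronized HeLa Kyoto cells, proteins quantified by TMT10plex mass spectrometry, three biological replicates, mitosis taken 0.5 h after nocodazole release, G1/S directly after double thymidine block.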

With “MDALNRNQIGPGCQTQTMVQKGPLDLIETGKGLKVQTDKPHLVSLGSGRLSTAITLLPLEEGRTVIGSAARDISLQGPGLAPEHCYIENLRGTLTLYPCGNACTIDGLPVRQPTRLTQGCMLCLGQSTFLRFNHPAEAKWMKSMIPAGGRAPGPPYSPVPAESESLVNGNHTPQTATRGPSACASHSSLVSSIEKDLQEIMDSLVLEEPGAAGKKPAATSPLSPMANGGRYLLSPPTSPGAMSVGSSYENTSPAFSPLSSPASSGSCASHSPSGQEPGPSVPPLVPARSSSYHLALQPPQSRPSGARSESPRLSRKGGHERPPSPGLRGLLTDSPAATVLAEARRATESPRLGGQLPVVAISLSEYPASGALSQPTSIPGSPKFQPPVPAPRNKIGTLQDRPPSPFREPPGSERVLTTSPSRQLVGRTFSDGLATRTLQPPESPRLGRRGLDSMRELPPLSPSLSRRALSPLPTRTTPDPKLNREVAESPRPRRWAAHGASPEDFSLTLGARGRRTRSPSPTLGESLAPHKGSFSGRLSPAYSLGSLTGASPCQSPCVQRKLSSGDLRVPVTRERKNSITEISDNEDDLLEYHRRQRQERLREQEMERLERQRLETILNLCAEYSRADGGPEAGELPSIGEATAALALAGRRPSRGLAGASGRSSEEPGVATQRLWESMERSDEENLKEECSSTESTQQEHEDAPSTKLQGEVLALEEERAQVLGHVEQLKVRVKELEQQLQESAREAEMERALLQGEREAERALLQKEQKAVDQLQEKLVALETGIQKERDKEAEALETETKLFEDLEFQQLERESRVEEERELAGQGLLRSKAELLRSIAKRKERLAILDSQAGQIRAQAVQESERLARDKNASLQLLQKEKEKLTVLERRYHSLTGGRPFPKTTSTLKEMEKLLLPAVDLEQWYQELMAGLGTGPAAASPHSSPPPLPAKASRQLQVYRSKMDGEATSPLPRTRSGPLPSSSGSSSSSSQLSVATLGRSPSPKSALLTQNGTGSLPRNLAATLQDIETKRQLALQQKGQQVIEEQRRRLAELKQKAAAEAQCQWDALHGAAPFPAGPSGFPPLMHHSILHHLPAGRERGEEGEHAYDTLSLESSDSMETSISTGGNSACSPDNMSSASGLDMGKIEEMEKMLKEAHAEKNRLMESREREMELRRQALEEERRRREQVERRLQSESARRQQLVEKEVKMREKQFSQARPLTRYLPIRKEDFDLKTHIESSGHGVDTCLHVVLSSKVCRGYLVKMGGKIKSWKKRWFVFDRLKRTLSYYVDKHETKLKGVIYFQAIEEVYYDHLRSAAKKRFFRFTMVTESPNPALTFCVKTHDRLYYMVAPSAEAMRIWMDVIVTGAEGYTQFMN [PHLDB1]”, in the data set on HeLa Kyoto [1], the “solubility in G1/S (log2)” value turned out to be 0.0569. Moreover, the melting temperature in the data set with HeLa Kyoto [2] (cell cycle stage: G1/S) was 50.8 °C; in the data set with HeLa Kyoto [2] (cell cycle stage: mitosis) it was 51.1 °C. The “solubility change mitosis (log2)” value with HeLa Kyoto [3] was -0.13. The values for the thermal stability score in the data set with HeLa Kyoto [4] (setting [5]) and in the data set on HeLa Kyoto [4] (cell cycle stage: mitosis) were 0.702 and 1.01, respectively.

For “MDAPGALAQTAAPGPGRKELKIVIVGDGGCGKTSLLMVYSQGSFPEHYAPSVFEKYTASVTVGSKEVTLNLYDTAGQEDYDRLRPLSYQNTHLVLICYDVMNPTSYDNVLIKWFPEVTHFCRGIPMVLIGCKTDLRKDKEQLRKLRAAQLEPITYMQGLSACEQIRAALYLECSAKFRENVEDVFREAAKVALSALKKAQRQKKRRLCLLL [RHOF]”, in the data set with HeLa Kyoto [1], the “solubility in G1/S (log2)” value is -0.0436. Also, the melting temperature with HeLa Kyoto [2] (cell cycle stage: G1/S) worked out at 53.8 °C; in the data set on HeLa Kyoto [2] (cell cycle stage: mitosis), 53 °C. In addition, the “solubility change mitosis (log2)” value in the data set with HeLa Kyoto [3] is -0.104. The figures for the thermal stability score in the data set with HeLa Kyoto [4] (setting [5]) and in the data set with HeLa Kyoto [4] (cell cycle stage: mitosis) were 0.493 and 0.369, respectively.

Consider “MDAPKAGYAFEYLIETLNDSSHKKFFDVSKLGTKYDVLPYSIRVLLEAAVRNCDGFLMKKEDVMNILDWKTKQSNVEVPFFPARVLLQDFTGIPAMVDFAAMREAVKTLGGDPEKVHPACPTDLTVDHSLQIDFSKCAIQNAPNPGGGDLQKAGKLSPLKVQPKKLPCRGQTTCRGSCDSGELGRNSGTFSSQIENTPILCPFHLQPVPEPETVLKNQEVEFGRNRERLQFFKWSSRVFKNVAVIPPGTGMAHQINLEYLSRVVFEEKDLLFPDSVVGTDSHITMVNGLGILGWGVGGIETEAVMLGLPVSLTLPEVVGCELTGSSNPFVTSIDVVLGITKHLRQVGVAGKFVEFFGSGVSQLSIVDRTTIANMCPEYGAILSFFPVDNVTLKHLEHTGFSKAKLESMETYLKAVKLFRNDQNSSGEPEYSQVIQINLNSIVPSVSGPKRPQDRVAVTDMKSDFQACLNEKVGFKGFQIAAEKQKDIVSIHYEGSEYKLSHGSVVIAAVISCTNNCNPSVMLAAGLLAKKAVEAGLRVKPYIRTSLSPGSGMVTHYLSSSGVLPYLSKLGFEIVGYGCSICVGNTAPLSDAVLNAVKQGDLVTCGILSGNKNFEGRLCDCVRANYLASPPLVVAYAIAGTVNIDFQTEPLGTDPTGKNIYLHDIWPSREEVHRVEEEHVILSMFKALKDKIEMGNKRWNSLEAPDSVLFPWDLKSTYIRCPSFFDKLTKEPIALQAIENAHVLLYLGDSVTTDHISPAGSIARNSAAAKYLTNRGLTPREFNSYGARRGNDAVMTRGTFANIKLFNKFIGKPAPKTIHFPSGQTLDVFEAAELYQKEGIPLIILAGKKYGSGNSRDWAAKGPYLLGVKAVLAESYEKIHKDHLIGIGIAPLQFLPGENADSLGLSGRETFSLTFPEELSPGITLNIQTSTGKVFSVIASFEDDVEITLYKHGGLLNFVARKFS [IREB2]”, for which the “solubility in G1/S (log2)” value with HeLa Kyoto [1] was 0.000606. In addition, the melting temperature in the data set on HeLa Kyoto [2] (cell cycle stage: G1/S) was found to be 50.6 °C; in the data set with HeLa Kyoto [2] (cell cycle stage: mitosis), 49.8 °C. For the same substance, in the data set with HeLa Kyoto [3], the “solubility change mitosis (log2)” value was found to be 0.0731. Further, the thermal stability score in the data set with HeLa Kyoto [4] (setting [5]) is -0.342; in the data set with HeLa Kyoto [4] (cell cycle stage: mitosis), -0.0931.

MDC1: the “solubility in G1/S (log2)” value with HeLa Kyoto [1] is -0.295. Besides, the melting temperature is 51.2 °C in the data set on HeLa Kyoto [2] (cell cycle stage: G1/S) and 52.1 °C in the data set with HeLa Kyoto [2] (cell cycle stage: mitosis). Besides, in the data set on HeLa Kyoto [3], the “solubility change mitosis (log2)” value was found to be 0.434. In addition, the thermal stability score in the data set with HeLa Kyoto [4] (setting [5]) was -1.53; in the data set with HeLa Kyoto [4] (cell cycle stage: mitosis) it was 1.05.

In the case of “MDCGSVGGQRTQRLPGRQRLLFLPVGLSGRPGGSETSARRCLSALSDGLGALRPRAPAARGGVSRASPLLLLLLVPSPRLAAAAPRRQLGDWERSRLGYAAPPAGRSSAWRCSPGVAAAAGALPQYHGPAPALVSCRRELSLSAGSLQLERKRRDFTSSGSRKLYFDTHALVCLLEDNGFATQQAEIIVSALVKILEANMDIVYKDMVTKMQQEITFQQVMSQIANVKKDMIILEKSEFSALRAENEKIKLELHQLKQQVMDEVIKVRTDTKLDFNLEKSRVKELYSLNEKKLLELRTEIVALHAQQDRALTQTDRKIETEVAGLKTMLESHKLDNIKYLAGSIFTCLTVALGFYRLWI [MCUR1]”, the “solubility in G1/S (log2)” value with HeLa Kyoto [1] amounted to 0.186. In the data set with HeLa Kyoto [2] (cell cycle stage: mitosis), this substance had a melting temperature of 52 °C. Moreover, the “solubility change mitosis (log2)” value with HeLa Kyoto [3] was -0.0249. The figures for the thermal stability score in the data set with HeLa Kyoto [4] (setting [5]) and in the data set with HeLa Kyoto [4] (cell cycle stage: mitosis) were -0.0232 and -0.133, respectively.

As for “MDDIFTQCREGNAVAVRLWLDNTENDLNQGDDHGFSPLHWACREGRSAVVEMLIMRGARINVMNRGDDTPLHLAASHGHRDIVQKLLQYKADINAVNEHGNVPLHYACFWGQDQVAEDLVANGALVSICNKYGEMPVDKAKAPLRELLRERAEKMGQNLNRIPYKDTFWKGTTRTRPRNGTLNKHSGIDFKQLNFLTKLNENHSGELWKGRWQGNDIVVKVLKVRDWSTRKSRDFNEECPRLRIFSHPNVLPVLGACQSPPAPHPTLITHWMPYGSLYNVLHEGTNFVVDQSQAVKFALDMARGMAFLHTLEPLIPRHALNSRSVMIDEDMTARISMADVKFSFQCPGRMYAPAWVAPEALQKKPEDTNRRSADMWSFAVLLWELVTREVPFADLSNMEIGMKVALEGLRPTIPPGISPHVCKLMKICMNEDPAKRPKFDMIVPILEKMQDK [ILK]”, the “solubility in G1/S (log2)” value in the data set with HeLa Kyoto [1] came out at 0.274. Moreover, the melting temperature was found to be 50.1 °C in the data set on HeLa Kyoto [2] (cell cycle stage: G1/S) and 50 °C in the data set with HeLa Kyoto [2] (cell cycle stage: mitosis). Besides, the “solubility change mitosis (log2)” value in the data set with HeLa Kyoto [3] is -0.135. The thermal stability score in the data set with HeLa Kyoto [4] (setting [5]) stood at 1.36; with HeLa Kyoto [4] (cell cycle stage: mitosis) it was 1.76.
